Literature values in paper PMC11178655, “Dosimetry and pharmacokinetics of [^177Lu]Lu-satoreotide tetraxetan in patients with progressive neuroendocrine tumours” (European Journal of Nuclear Medicine and Molecular Imaging, 2024).

Columns and labels:
patients with NETs = details: human, in vivo; cited from earlier work
From the text: In the present study, we observed tumour ADCs of 5.0 Gy/GBq after cycle 1 and 4.0 Gy/GBq after cycle 3. These tumour ADCs are consistent with previously reported findings from a direct comparison of [^177Lu]Lu-satoreotide tetraxetan and [^177Lu]Lu-DOTA-TATE in the same tumours and patients in a cross-over design, which reported median tumour dose of [^177Lu]Lu-satoreotide tetraxetan of 7.0 Gy/GBq (range: 4.2–29 Gy/GBq), 3.5 times greater than the median tumour dose of [^177Lu]Lu-DOTA-TATE [22]. However, it should be noted that median tumour dose in this pilot study was calculated from a limi ... || The median ADC of [^177Lu]Lu-satoreotide tetraxetan for the bone marrow using a blood-based approach was lower than reported in other [^177Lu]Lu-satoreotide tetraxetan studies. The result is, however, similar to the mean blood-based radiation ADCs for the bone marrow reported for [^177Lu]Lu-DOTA-TATE [32].

[1] = in vivo; cited from earlier work
From the text: In addition, consistent with their specific binding to SSTR, both [^177Lu]Lu-satoreotide tetraxetan and [^177Lu]Lu-DOTA-TATE predominantly show uptake in tumours, followed by the kidneys, spleen, and liver.

**Q.** Which results are given for [^177Lu]Lu-DOTA-TATE?
**A.** Blood-based bone marrow ADC (patients with NETs): ≤ 0.02 Gy/GBq; Image-based bone marrow ADC (patients with NETs): up to 0.06 Gy/GBq; Median absorbed dose to the tumour (patients with NETs): 4.6 Gy/GBq; Mean terminal blood half-life [1]: 72 h
